# Substitutions are numbered along the chain they refer to.
# T1: Full length mouse CD98hc on CHO cells (mouse, UniProt P10852 1-526)
# T1 construct: CHO cells stably overexpressing it; also called CHO-mouse CD98hc; CHO-mCD98hc
# T1 sequence: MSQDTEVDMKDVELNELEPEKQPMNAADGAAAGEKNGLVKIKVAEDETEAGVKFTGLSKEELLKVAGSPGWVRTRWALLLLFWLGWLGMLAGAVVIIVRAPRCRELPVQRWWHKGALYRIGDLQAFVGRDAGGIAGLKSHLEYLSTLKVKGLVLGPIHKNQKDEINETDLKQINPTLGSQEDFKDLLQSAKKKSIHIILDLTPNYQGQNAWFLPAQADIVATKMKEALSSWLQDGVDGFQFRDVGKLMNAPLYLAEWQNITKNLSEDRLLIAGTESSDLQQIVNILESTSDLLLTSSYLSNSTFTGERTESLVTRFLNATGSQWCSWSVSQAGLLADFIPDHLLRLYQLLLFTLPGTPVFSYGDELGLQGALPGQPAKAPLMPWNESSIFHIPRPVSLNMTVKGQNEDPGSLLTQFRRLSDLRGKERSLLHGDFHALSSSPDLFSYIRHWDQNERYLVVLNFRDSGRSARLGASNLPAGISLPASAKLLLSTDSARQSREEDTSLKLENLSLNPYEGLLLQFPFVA
# T2: Full length human CD98hc on CHO cells (human)
# T2 construct: CHO cells stably overexpressing it; also called CHO-human CD98hc; CHO-huCD98hc
# T2 chain: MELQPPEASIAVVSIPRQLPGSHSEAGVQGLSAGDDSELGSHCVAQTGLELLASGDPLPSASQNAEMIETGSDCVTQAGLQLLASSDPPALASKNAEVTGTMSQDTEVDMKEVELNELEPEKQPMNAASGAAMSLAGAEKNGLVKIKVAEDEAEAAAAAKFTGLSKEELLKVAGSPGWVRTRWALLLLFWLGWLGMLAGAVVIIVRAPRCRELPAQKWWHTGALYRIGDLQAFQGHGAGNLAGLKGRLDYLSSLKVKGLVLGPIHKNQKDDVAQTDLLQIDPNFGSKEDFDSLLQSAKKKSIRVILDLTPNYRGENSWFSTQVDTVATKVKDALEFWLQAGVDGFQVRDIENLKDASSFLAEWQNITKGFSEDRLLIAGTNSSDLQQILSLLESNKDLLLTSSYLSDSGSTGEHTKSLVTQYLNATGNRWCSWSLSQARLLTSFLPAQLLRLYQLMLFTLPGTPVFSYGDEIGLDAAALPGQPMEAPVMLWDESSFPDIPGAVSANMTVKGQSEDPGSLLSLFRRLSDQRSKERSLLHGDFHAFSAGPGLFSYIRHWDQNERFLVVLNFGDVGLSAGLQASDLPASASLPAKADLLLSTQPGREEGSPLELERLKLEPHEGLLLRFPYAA
# T3: human CD98hc endogenously expressed on HCMEC/D3 cells (human)
# T3 construct: human brain endothelial cell line
# T3 chain: T2 chain
# B1: CD98HC.04.013 (antibody, V domains shown)
# VH: EVQLVESGGDLGMPGGSLKLSCAASGFALSGYDMSWVRQTPDKRLEWVAYLSSGGGSTYYPYTVKGRFTISRDNAQNTLYLQMSSLKSEDTAIYYCARHSEVRPWFGYWGQGTLVTVSA
# VL: DIVMSQSPSSLAVSVGEKVTLTCKSSQSLLYSGNQKNYLAWYQQNPGQSPKLLIYWASTRESGVPDRFTGSGSGTDFTLTISSVKAEDLAVYYCQQYYTYPPTFGAGTKLGLK
# notes: hybridoma IgG
# B2: CD98HC.04.058 (antibody, V domains shown)
# VH: QVQLQQSGAELVRPGVSVKISCKASGYTFTDHTMHWVKQSHARSLEWIGVISTYFGDASYNPKFKGKATMTVDKSSNTAYMELARLTSEDSAIYYCARVGGRLRLGYYFDYWGQGTTLTVSS
# VL: NIMMTQSPSSLAVSAGEKVTMNCKSSQTVLYSSNQKNYLAWYQQKPGQSPKLLIYWASTRESGVPDRFTGSGSGTDFTLTISSVQVEDLAVYYCHQYLSSYTFGGGTKLEIK
# notes: hybridoma IgG
# B3: CD98HC.04.045 (antibody, V domains shown)
# VH: QIQLVQSGPELKKPGETVKISCKASGYSITNFGMNWVKQAPGKGLKWMGWVNTYTGEPTYADDFKGRFAFSLETSASTASLQINNLKNEDTATYFCTRSVITYTMDYWGQGTSVTVSS
# VL: DIQLTQSPSSLSASLGERVSLTCRASQEISGYLSWLQQKPDGTIKRLIYAASTLDSGVPKRFSGSRSGSDYSLTISSLESEDFADYYCLQYASYPRTFGGGTKVEIK
# notes: hybridoma IgG
# B4: CD98HC.04.018 (antibody, V domains shown)
# VH: QIQLVQSGPELKKPGETVKISCKASGYTFRNYGMNWVKQAPGKGLKWMGWINTYTGEPTYAEDFKGRFAFSLETSASTAYLQINKLKNEDEATYFCARGEAHWYFDVWGAGTTVTVSS
# VL: QIVLTQSPAIMSASLGERVTMTCTASSSVSSSYLYWYQQKPGSSPKLWIYSIFNLASGVPARFSGSGSGTSYSLTISSMEAEDAATYYCHQYHRSPPTFGGGTKLEIK
# notes: hybridoma IgG
# B5: CD98HC.04.046 (antibody, V domains shown)
# VH: QIQLVQSGPVLKKPGETVKISCKASGYTFTNFGMNWVKQAPGKGLKWMGWIDTYTREPTYVDDFKGRFAFSLETSVTTAYLQINDLKNEDSATYFCARGESHWYFDVWGAGTTVTVSS
# VL: B4 VL with T24I, A25V, I52T, F53S, N54I, A61G
# notes: hybridoma IgG
# B6: CD98HC.04.022 (antibody, V domains shown)
# VH: EVQLQQSGAELVKPGASVKLSCTASGFNIKDTFMHWMKQRPEQGLEWIGRIDPANANTRYDPKFQGKATITTDTSSNTAYLQLSSLTSEDTAVYYCARDVYYDVWGAGTTVTVSS
# VL: DILMTQSPSSMSVSLGDTVTITCHASQGISSNIGWLQQKPGRSFKGLIYHGSNLEDGVPSRFTGSGSGTDYSLTISGLESEDFADYYCVQYAQFPRTFGGGTKLEIQ
# notes: hybridoma IgG
# Biological target: T4, Human TfR-AVI-His (control) (human, UniProt P02786 89-760)
# T4 construct: control protein; also called Avi-His-tagged human TfR; human transferrin receptor
# T4 sequence (P02786 89-760 limits assumed): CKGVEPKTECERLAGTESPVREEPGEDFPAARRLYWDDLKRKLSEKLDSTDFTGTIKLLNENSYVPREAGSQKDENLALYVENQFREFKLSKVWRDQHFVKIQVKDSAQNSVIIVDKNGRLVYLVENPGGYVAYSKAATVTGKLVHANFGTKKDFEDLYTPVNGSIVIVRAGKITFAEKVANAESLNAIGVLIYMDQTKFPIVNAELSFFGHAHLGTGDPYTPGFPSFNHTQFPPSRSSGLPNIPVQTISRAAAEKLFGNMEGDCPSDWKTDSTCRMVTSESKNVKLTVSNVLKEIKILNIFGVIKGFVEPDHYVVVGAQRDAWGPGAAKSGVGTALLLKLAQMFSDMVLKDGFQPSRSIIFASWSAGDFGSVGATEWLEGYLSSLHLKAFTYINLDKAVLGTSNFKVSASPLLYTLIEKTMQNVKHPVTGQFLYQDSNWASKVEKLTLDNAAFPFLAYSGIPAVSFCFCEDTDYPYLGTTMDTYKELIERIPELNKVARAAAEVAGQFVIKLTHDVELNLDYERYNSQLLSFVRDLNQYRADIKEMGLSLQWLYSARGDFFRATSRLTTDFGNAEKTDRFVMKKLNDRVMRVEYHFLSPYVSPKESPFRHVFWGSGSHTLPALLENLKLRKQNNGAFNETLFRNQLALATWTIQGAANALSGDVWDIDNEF
# Assay: ELISA, hybridoma supernatant
# Experimental: Briefly, 96-well polystyrene plates were coated with 5 μg/ml of streptavidin (Thermo Fisher, Cat #PI21125) in coating buffer (0.05M carbonate buffer, pH 9.6, Sigma, Cat #C3041) overnight at 4° C. Coated plates were then blocked with ELISA diluent (PBS+0.5% BSA+0.05% Tween20) for one hour. Blocking buffer was removed and human, cyno, or mouse Avi-His-tagged CD98hc and Avi-His-tagged human TfR polypeptides were added at 1 μg/ml in ELISA diluent and captured for 1 hour at room temperature. After washing three times with 300 μl of PBST (PBS+0.05% Tween20, Thermo 28352), the hybridoma cell culture supernatants or 1 μg/ml of commercially available purified mouse anti-human CD98hc monoclonal antibody (Sigma Aldrich, Cat #SAB 4700503) and rat anti-mouse CD98hc antibody (Bio-Rad Laboratories, Hercules, CA, Cat #MCA2684) were added (50 μl/well) to each well. After 30 minutes of incubation at room temperature, the plates were washed three times with 300 μl of PBST. […] After a final set of washes (3×300 μl in PBST), 50 μl/well of BioFx TMB substrate (Surmodics, Eden Praire, MN, Cat #TMBW-1000-01) was added to the wells. The reaction was then quenched after 5-10 mins with 50 μl/well of 2N sulfuric acid. The plates were read for absorbance at 450 nm on a SpectraMax M5 (Molecular Devices, Sunnyvale, CA) using SoftMax Pro software.
row,Binder,OD450
1,B1,0.0667
2,B2,0.0976
3,B3,0.103
4,B4,0.0717
5,B5,0.0719
6,B6,0.0533

# Biological target: T1, Full length mouse CD98hc on CHO cells
# Assay: FACS, hybridoma supernatant
row,Binder,MFI ratio over secondary antibody
1,B1,1.1
2,B2,1.2
3,B3,1.2
4,B4,1.1
5,B5,1.2
6,B6,1.1

# Biological target: T2, Full length human CD98hc on CHO cells
# Assay: FACS, hybridoma supernatant
row,Binder,MFI ratio over secondary antibody
1,B1,21.2
2,B2,33
3,B3,2.4
4,B4,50.3
5,B5,27.7
6,B6,16.6

# Biological target: T3, human CD98hc endogenously expressed on …
# Assay: FACS, hybridoma supernatant
row,Binder,MFI ratio over secondary antibody
1,B1,124
2,B2,158
3,B3,4
4,B4,335
5,B5,147
6,B6,102

# Biological target: T1, Full length mouse CD98hc on CHO cells
# Assay: FACS, hybridoma supernatant
# Remark: another data set of the same source
# From the text: The IgG positive hybridoma supernatants (898 in total) were initially screened for their ability to differentially bind CHO cells overexpressing human or mouse CD98hc cells compared to CHO parental cells by FACS. Overexpressing cells were harvested, washed, and labeled with various concentrations and combinations of CellTrace cell proliferation dyes CFSE and Violet (ThermoFisher, Cat #C34554 and Cat #34557, respectively) to create uniquely barcoded cell populations. Barcoded cells (5×10⁴ of each cell population) were aliquoted into 96-well U-bottom plates and incubated with 50 μl of hybridoma cell culture supernatant or 1 μg/ml of commercially available purified mouse anti-human CD98hc monoclonal antibody (Sigma Aldrich, Cat #SAB 4700503) and rat anti-mouse CD98hc antibody (Bio-Rad Laboratories, Hercules, CA, Cat #MCA2684) on ice for 30 minutes. […] Following this secondary antibody incubation, the cells were again washed twice with ice-cold FACS buffer and resuspended in a final volume of 50 μl of FACS buffer containing 0.25 μl/well propidium iodide (BD Biosciences, Cat #556463). Binding intensity on cells was analyzed using the FACS Canto system (BD Biosciences), with sorting gates drawn to exclude dead (i.e., propidium iodide-positive) cells. For each barcoded cell population, the ratio of APC Mean Fluorescence Intensity (MFI) divided by secondary antibody MFI was calculated for each anti-CD98hc hybridoma supernatant tested and reported in Table 5.
row,Binder,binding result
1,B1,no binding
2,B2,no binding
3,B3,no binding
4,B4,no binding
5,B5,no binding
6,B6,no binding
